Assay results published in publication PMC12661447, “Cyanophycinase is required for heterotrophy in cyanobacteria” (The Journal of Biological Chemistry, 2025).

Molecular target: T1, cyanophycinase (CphB) (Synechocystis sp. PCC 6803 (endogenous …, UniProt P73832 1-271))
T1 sequence (looked up): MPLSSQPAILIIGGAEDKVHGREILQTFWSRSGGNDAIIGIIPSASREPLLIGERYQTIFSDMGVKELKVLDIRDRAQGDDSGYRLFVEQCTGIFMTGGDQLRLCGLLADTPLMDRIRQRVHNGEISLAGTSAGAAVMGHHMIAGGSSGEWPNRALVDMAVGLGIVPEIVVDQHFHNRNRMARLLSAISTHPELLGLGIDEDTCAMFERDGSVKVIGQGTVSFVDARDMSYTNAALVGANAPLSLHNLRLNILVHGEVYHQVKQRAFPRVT
Assay: cell-based or functional assay

B1: FLAG-tagged variant of ArgD (acetylornithine aminotransferase) (enzyme, Synechocystis sp. PCC 6803, UniProt P73133 1-429, looked up)
chain: MTYSPVVESVEAQAFAVTDLSPAAEFKTADFDTYVMNTYGRFPIAIARGQGSTLWDTEGKSYLDFVAGIATCTLGHAHPALVRAVSDQIQKLHHVSNLYYIPEQGELAKWIVEHSCADRVFFCNSGAEANEAAIKLVRKYAHTVLDFLEQPVILTAKASFHGRTLATITATGQPKYQQYFDPLVPGFDYVPYNDIRSLENKVADLDEGNSRVAAIFLEPLQGEGGVRPGDLAYFKRVREICDQNDILLVFDEVQVGVGRTGKLWGYEHLGVEPDIFTSAKGLAGGVPIGAMMCKKFCDVFEPGNHASTFGGNPLACAAGLAVLKTIEGDRLLDNVQARGEQLRSGLAEIKNQYPTLFTEVRGWGLINGLEISAESSLTSVEIVKAAMEQGLLLAPAGPKVLRFVPPLVVTEAEIAQAVEILRQAIATLV
in vitro activity of recombinant CphB-His (2 μM; degradation of cyanophycin, β-Asp-Arg dipeptide at 2 min by LC-HRMS) with recombinant ArgD-His added in a 1:1 ratio against without ArgD (BSA control): ~2 fold
